# Results: the supplement of paper PMC9170038
# Test system: MS2 coat protein
# Assay: apparent KD of MS2 coat protein; designed switch direction (-1 OFF switch, 1 ON switch): -1; higher = weaker reporter binding
# Outline: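 Each step of the titration lasted 0.8–1.5 h at the lowest concentration and 10–20 min at the highest. The protein, SNAP-549-labelled MS2 coat protein, went from 0.7 or 1.5 nM doubling to 3 µM over RNA switches transcribed on Illumina chips by stalled E. coli RNA polymerase. Normalised cluster fluorescence was curve-fitted, and the per-design median over clusters is given as apparent KD.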
# [1] = input ligand: microRNA oligo, concentration not stated
# [2] = Eterna round: R95, input ligand: FMN 200 uM
# [3] = Eterna round: R95, input ligand: microRNA oligo, concentration not stated
# [4] = Eterna round: R95, input ligand: none
sequence,measurement,setting,value
"AUAAAGAACUCAGGAUAUUAGAGAAACGGACAUGAGGAUCACCCAUGUGCGCCUGAUGCCGAGAAUAAGAAGGGAGAAUAGAAA [Rearbi] (Eterna round: R96, puzzle: Exclusion NG 2)",apparent KD of MS2 coat protein,input ligand: FMN 200 uM,131 nM
same,apparent KD of MS2 coat protein,[1],16.7 nM
same,apparent KD of MS2 coat protein,input ligand: none,27.4 nM
"AUAAAGCAAGCAUGAUCCCACAUGAGGAUCACCCAUGUGUUCGUCUUAUAGGCUGCUGAGGCUUUUGCCUCGGUGGC [LRO Sensor-off var1-06 loose mod of D91 from Mat747] (Eterna round: R97, puzzle: Sensor, turn-off variant 1)",apparent KD of MS2 coat protein,input ligand: FMN 200 uM,69 nM
same,apparent KD of MS2 coat protein,input ligand: none,67.9 nM
"AUAAAUCAUGUAGGAUAUGCGUGGCGAAGCUAUGCAGAAGGACAUGAGGAUCACCCAUGUGCUUCCGUCUGCGUACAGACGGAA [Mat - Exclusion NG 1 - Mod of JL - D35] (Eterna round: R96, puzzle: Exclusion NG 1)",apparent KD of MS2 coat protein,input ligand: FMN 200 uM,64.8 nM
same,apparent KD of MS2 coat protein,[1],228 nM
same,apparent KD of MS2 coat protein,input ligand: none,190 nM
"AUAAGCUUUUAAAUCCUUAACAUGAGGAUCACCCAUGUUCGUCUUAUGAUGGUCUGAUCCCUGAGGAUCGGACCGUU [JL-sv1-2.03 Brourd Mod] (puzzle: Sensor v3, turn-off variant 1)",apparent KD of MS2 coat protein,[2],29.2 nM
same,apparent KD of MS2 coat protein,[3],95 nM
same,apparent KD of MS2 coat protein,[4],30.9 nM
"AUAAGUGAUAAGGAUAUUACUAGCUUCGGCUAGUGAGAAGGUAUCACAUGAGGAUCACCCAUGUGUUCCAAUAA [Ex6/7-B1] (Eterna round: R97, puzzle: Exclusion 6)",apparent KD of MS2 coat protein,input ligand: FMN 200 uM,270 nM
same,apparent KD of MS2 coat protein,input ligand: none,119 nM
"AUAAUGUAAGGAUAUCAGUCGACUAGCGAUAGCUAGUCGACUGAGAAGGUACAUGAGGAUCACCCAUGUGAAUA [E4/16-A4] (Eterna round: R97, puzzle: Exclusion 4)",apparent KD of MS2 coat protein,input ligand: FMN 200 uM,213 nM
same,apparent KD of MS2 coat protein,input ligand: none,46 nM
"AUAAUGUAAGGAUAUCAGUCGACUAGCUGCGGCUAGUCGACUGAGAAGGUACAUGAGGAUCACCCAUGUGAUUA [E4/10-A3] (Eterna round: R97, puzzle: Exclusion 4)",apparent KD of MS2 coat protein,input ligand: FMN 200 uM,889 nM
same,apparent KD of MS2 coat protein,input ligand: none,138 nM
"AUAAUGUAAGGAUAUCAGUCGUUAAUAAUUUAAUAAUCGACUGAGAAGGUACAUGAGGAUCACCCAUGUGAUCA [E4/8-B1] (Eterna round: R97, puzzle: Exclusion 4)",apparent KD of MS2 coat protein,input ligand: FMN 200 uM,350 nM
same,apparent KD of MS2 coat protein,input ligand: none,930 nM
"AUAAUGUCAGGAUAUCAGUCGACUAGCCUCGGCUAGUCGACUGAGAAGGGACAUGAGGAUCACCCAUGUGUUUC [E4/14-A2] (Eterna round: R97, puzzle: Exclusion 4)",apparent KD of MS2 coat protein,input ligand: FMN 200 uM,811 nM
same,apparent KD of MS2 coat protein,input ligand: none,569 nM
"AUAAUGUCAGGAUAUCAGUCGUACAGCCUCGGCUGUACGACUGAGAAGGGACAUGAGGAUCACCCAUGUGGUUA [E4/7-A2] (Eterna round: R97, puzzle: Exclusion 4)",apparent KD of MS2 coat protein,input ligand: FMN 200 uM,34.2 nM
same,apparent KD of MS2 coat protein,input ligand: none,562 nM
"AUAAUGUCAGGAUAUCAGUCGUACAGCUUCGGCUGUACGACUGAGAAGGGACAUGAGGAUCACCCAUGUGGUUA [E4/7-A1] (Eterna round: R97, puzzle: Exclusion 4)",apparent KD of MS2 coat protein,input ligand: FMN 200 uM,36.4 nM
same,apparent KD of MS2 coat protein,input ligand: none,228 nM
"AUAAUGUGAGGAUAUAUGAAUCACGGUGAUACACCGUGAAGAUAGAAGGUACAUGAGGAUCACCCAUGUAGGGC [Mod of Anonveat 14 - Jieux - Exclusion 4] (Eterna round: R97, puzzle: Exclusion 4)",apparent KD of MS2 coat protein,input ligand: FMN 200 uM,39.5 nM
same,apparent KD of MS2 coat protein,input ligand: none,42.3 nM
"AUAAUGUGAGGAUAUCAGUCGACUAGCUUCGGCUAGUCGACUGAGAAGGCACAUGAGGAUCACCCAUGUGUUUC [E4/15-A1] (Eterna round: R97, puzzle: Exclusion 4)",apparent KD of MS2 coat protein,input ligand: FMN 200 uM,41.7 nM
same,apparent KD of MS2 coat protein,input ligand: none,18.7 nM
"AUAAUGUGAGGAUAUCAGUCGUACAGCCUCGGCUGUACGACUGAGAAGGCACAUGAGGAUCACCCAUGUGGUCA [E4/5-A2] (Eterna round: R97, puzzle: Exclusion 4)",apparent KD of MS2 coat protein,input ligand: FMN 200 uM,156 nM
same,apparent KD of MS2 coat protein,input ligand: none,590 nM
"AUAAUUAGUUCAGGAUAUCAGCACGUUUAGUGCUGAGAAGGGAACAUGAGGAUCACCCAUGUGAUCAAUAUUAUAAUUUUAAUU [ENG1/12-B2] (Eterna round: R96, puzzle: Exclusion NG 1)",apparent KD of MS2 coat protein,input ligand: FMN 200 uM,210 nM
same,apparent KD of MS2 coat protein,[1],754 nM
same,apparent KD of MS2 coat protein,input ligand: none,1100 nM
AUACAACAUGAGGAUCACCCAUGUGAGGAUAUGCGAUACAUCAUCAUCAUCAUCAAUCGCAGAAGGCACAACAU [Different] (puzzle: Exclusion 1),apparent KD of MS2 coat protein,[3],52.3 nM
AUACGUCAAGUCAGGAUAUAUACCGCGACUACGGCGUAGAAGGGACAUGAGGAUCACCCAUGUAAAAGGGCAAA [Ceerrilaza] (puzzle: Brourd's mod of Exclusion 4),apparent KD of MS2 coat protein,[2],37.7 nM
same,apparent KD of MS2 coat protein,[3],36.5 nM
same,apparent KD of MS2 coat protein,[4],34.5 nM
"AUAGGAGUAGGAUAUUCAGUUCGACACAUGAGGAUCACCCAUGUCGCUGUGGCCGGGCACGGAGAAGGAUUGUUGU [Eternabot (L1) Solution 15] (Eterna round: R97, puzzle: Exclusion 5)",apparent KD of MS2 coat protein,input ligand: FMN 200 uM,39.1 nM
same,apparent KD of MS2 coat protein,input ligand: none,36.3 nM
"AUAGUGUGAGGAUAUCGGACCAGUCCAGUUAGGAGCAGGAUCGAGAAGGUACAUGAGGAUCACCCAUGUGACCA [Eternabot (L2) Solution 8] (Eterna round: R97, puzzle: Exclusion 4)",apparent KD of MS2 coat protein,input ligand: FMN 200 uM,30.8 nM
same,apparent KD of MS2 coat protein,input ligand: none,16.8 nM
AUAUUAAGUGUGAGGAUAUGCUGGUCCUUGGAUCAGCAGAAGGCACAUGAGGAUCACCCAUGUAAUAUAUUUAA [Mat - Exclusion 4 - JL Mod - D48] (puzzle: Brourd's mod of Exclusion 4),apparent KD of MS2 coat protein,[3],87.2 nM
"AUAUUAAUAGUAAGGAUAUGCGUGUAUGUAGUUAUGCAGAAGGUACAUGAGGAUCACCCAUGUAUUAAUGUGUG [LRO-BmodExc4-06-Oppy's Opus] (Eterna round: R97, puzzle: Brourd's mod of Exclusion 4)",apparent KD of MS2 coat protein,input ligand: FMN 200 uM,21.6 nM
same,apparent KD of MS2 coat protein,input ligand: none,17.3 nM
"AUAUUGCGAGGAUAUACAUGAGGAUCACCCAUGUGGUAGUAGAUACGGUAGGGCUAGUGUAGAAGGUGUUAUGA [EX3 #14] (Eterna round: R97, puzzle: Exclusion 3)",apparent KD of MS2 coat protein,input ligand: FMN 200 uM,80.2 nM
same,apparent KD of MS2 coat protein,input ligand: none,172 nM
"AUCAACGUGUUAGGAUAUAAGCCUAAAAGAGACUUAGAAGGGACAUGAGGAUCACCCAUGUCGGGCGCCCAAGCUAUGCGACCU [Eternabot solution 4] (Eterna round: R96, puzzle: Exclusion NG 1)",apparent KD of MS2 coat protein,input ligand: FMN 200 uM,32.8 nM
same,apparent KD of MS2 coat protein,[1],17.4 nM
same,apparent KD of MS2 coat protein,input ligand: none,26.3 nM
"AUCAUGAUAGGAUAUACAUGAGGAUCACCCAUGUCCCACCCGUUACUUCUGGCCCUUUGUAGAAGGAUCGUCAA [Exy#21] (Eterna round: R97, puzzle: Exclusion 3)",apparent KD of MS2 coat protein,input ligand: FMN 200 uM,22.2 nM
same,apparent KD of MS2 coat protein,input ligand: none,26.8 nM
AUCAUGUAAGGAUAUCUUACAUGUAUCGAAAGAUACAGUUAAGAGAAGGUACAUGAGGAUCACCCAUGUAUAAC [Ex4-3: 35] (puzzle: Exclusion 4),apparent KD of MS2 coat protein,[3],25.2 nM
"AUCCGUUGUAUAGGAUAUAAGUGUAAACUGUACUUAGAAGGAUACAUGAGGAUCACCCAUGUUGUAAUAGAUGAGCAUAGAGCA [Eternabot solution 6] (Eterna round: R96, puzzle: Exclusion NG 1)",apparent KD of MS2 coat protein,input ligand: FMN 200 uM,52.2 nM
same,apparent KD of MS2 coat protein,[1],24.1 nM
same,apparent KD of MS2 coat protein,input ligand: none,30.2 nM
"AUCGUACUAGGAUAUUCGGAAACGGACAUGAGGAUCACCCAUGUGAAUAUCCGCAGUCCAGAAGAAGGAGUGAACG [EX5 C.27] (Eterna round: R97, puzzle: Exclusion 5)",apparent KD of MS2 coat protein,input ligand: FMN 200 uM,33.5 nM
same,apparent KD of MS2 coat protein,input ligand: none,17.9 nM
"AUCGUGCAGCUUUGCUGUACGAGUACAUGAGGAUCACCCAUGUAGGAUAUGGUACGCUUUGCGUGCUAGAAGGAUAUGCGAUUU [EX ENG3 1.47] (Eterna round: R96, puzzle: Exclusion NG 3)",apparent KD of MS2 coat protein,input ligand: FMN 200 uM,31.4 nM
same,apparent KD of MS2 coat protein,[1],23.9 nM
same,apparent KD of MS2 coat protein,input ligand: none,34.6 nM
AUGAAAGUAGGAUAUCGACUGAUUGACAUGAGGAUCACCCAUGUGGUUCUGUGCGGUGUUCGAGAAGGGCUAAGAU [Mageer] (puzzle: Exclusion 5),apparent KD of MS2 coat protein,[2],23.1 nM
same,apparent KD of MS2 coat protein,[3],15.7 nM
same,apparent KD of MS2 coat protein,[4],20.9 nM
"AUGCCGGUCCUCUCAGGUGUACAUGAGGAUCACCCAUGUCACGAGGAUAUCUAAGCGUGGUGGCCAGAGAAGGUGUGACAUGCU [Atibequ] (Eterna round: R96, puzzle: Exclusion NG 3)",apparent KD of MS2 coat protein,input ligand: FMN 200 uM,38.7 nM
same,apparent KD of MS2 coat protein,[1],17.2 nM
same,apparent KD of MS2 coat protein,input ligand: none,22.8 nM
"AUGUUAUUCUGAGGAUAUUGUUUAAUCCUCUCACAUGAGGAUCACCCAUGUUUCCGUGUUUACCGCAAGAAGGCAGUUUUGUUU [JR_ExcNG2_Sub026] (Eterna round: R96, puzzle: Exclusion NG 2)",apparent KD of MS2 coat protein,input ligand: FMN 200 uM,63.6 nM
same,apparent KD of MS2 coat protein,[1],48.7 nM
same,apparent KD of MS2 coat protein,input ligand: none,61.8 nM
"AUGUUAUUCUGAGGAUAUUGUUUAUUCUUCUCACAUGAGGAUCACCCAUGUUUCCGUGUUUACCGCAAGAAGGCAGUUUUGUUU [JR_ExcNG2_Sub027] (Eterna round: R96, puzzle: Exclusion NG 2)",apparent KD of MS2 coat protein,[1],22.1 nM
"AUUACGCAGUAGGAUAUGGGCGGUGAGCACCGUCCAGAAGGACUGACAUGAGGAUCACCCAUGUCCUCCCACAC [Eternabot (L2) Solution 42] (Eterna round: R97, puzzle: Exclusion 6)",apparent KD of MS2 coat protein,input ligand: FMN 200 uM,497 nM
same,apparent KD of MS2 coat protein,input ligand: none,55.8 nM
AUUAGUAUCUAGGAUAUCUAGUACAUAGUAUCUAGAGAAGGAGAUACAUGAGGAUCACCCAUGUUCUGUGAUCU [Exclusion 6 - 2:a] (puzzle: Exclusion 6),apparent KD of MS2 coat protein,[3],155 nM
AUUAUGUAAGGAUAUCUUACAUGUGACUUCGGUCACUGUCAAGAGAAGGUACAUGAGGAUCACCCAUGUAUGAC [Ex4-3: 49] (puzzle: Exclusion 4),apparent KD of MS2 coat protein,[3],14.2 nM
